± gives the uncertainty stated by the source.
Experiment: self-splicing fitness, log relative to wild type (ln ratio); higher = more splicing; Tetrahymena group I intron in knt gene, E. coli kanamycin selection, DiMSum; sequences stand for … in CUCUCU…GGAGGGAAAAGUUAUCAGGCAUGCACCUGGUAGCUAGUCUUUAAACCAAUAGAUUGCAUCGGUUUAAAAGGCAAGACCGUCAAAUUGCGGGAAAGGGGUCAACAGCCGUUCAGUACCAAGUCUCAGGGGAAACUUUGAGAUGGCCUUGCAAAGGGUAUGGUAAUAAGCUGACGGACAUGGUCCUAACCACGCAGCCAAGUCCUAAGUCAACAGAUCUUCUGUUGAUAUGGAUGCAGUUCACAGACUAAAUGUCGGUCGGGGAAGAUGUAUUCUUCUCAUAAGAUAUAGUCGGACCUCUCCUUAAUGGGAGCUAGCGGAUGAAGUGAUGCAACACUGGAGCCGCUGGGAACUAAUUUGUAUGCGAAAGUAUAUUGAUUAGUUUUGGAGUACUCGUGGUCG
Summary of the method: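 DiMSum derived fitness as the error-weighted combination of fold changes across replicates, kanamycin versus no kanamycin, normalised to wild type. E. coli BL21(DE3) held the library, which randomised all eight P1ex-region intron nucleotides within the knt kanamycin-resistance gene on pET-22b(+). Six replicate transformations grew overnight at 37°C or 30°C on LB agar with or without 25 μg/mL kanamycin, also containing 100 μg/mL carbenicillin, 50 μM IPTG and 0.2% rhamnose, and pooled colonies were amplicon-sequenced on an Illumina HiSeq 2500.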

In the case of CAUCAGCAAUAUUACGUCUG, the “self-splicing fitness (ln)” value (30 °C) is reported as -0.675 ± 0.047 and the “self-splicing fitness (ln)” value (37 °C) is reported as 0.264 ± 0.059.
With CGGUAGCAAUAUUACGCACC the “self-splicing fitness (ln)” value (37 °C) was -0.162 ± 0.39.
For CUCGAGCAAUAUUACGAGCG, the “self-splicing fitness (ln)” value (30 °C) was -3.66 ± 0.43 and the “self-splicing fitness (ln)” value (37 °C) was -2.84 ± 0.25.
In the case of GCAUAGCAAUAUUACGGUUC, the “self-splicing fitness (ln)” value (30 °C) is reported as -2.21 ± 0.12 and the “self-splicing fitness (ln)” value (37 °C) is reported as -0.892 ± 0.13.
With GACUAGCAAUAUUACGUCGA the “self-splicing fitness (ln)” value (30 °C) was -1.96 ± 0.11 and the “self-splicing fitness (ln)” value (37 °C) was -0.484 ± 0.1.
In the case of GGUUAGCAAUAUUACGGCCG, the “self-splicing fitness (ln)” value (30 °C) is reported as -0.999 ± 0.19 and the “self-splicing fitness (ln)” value (37 °C) is reported as -0.019 ± 0.25.
In the case of AGUCAGCAAUAUUACGUUUG, the “self-splicing fitness (ln)” value (30 °C) is reported as -4.04 ± 0.21 and the “self-splicing fitness (ln)” value (37 °C) is reported as -2.53 ± 0.19.
In the case of GGGAAGCAAUAUUACGACAA, the “self-splicing fitness (ln)” value (30 °C) is reported as -2 ± 0.2 and the “self-splicing fitness (ln)” value (37 °C) is reported as -1.34 ± 0.19.
With CUAUAGCAAUAUUACGCGAA the “self-splicing fitness (ln)” value (30 °C) was -3.27 ± 0.2 and the “self-splicing fitness (ln)” value (37 °C) was -3.06 ± 0.33.
In the case of CGUUAGCAAUAUUACGUAGA, the “self-splicing fitness (ln)” value (30 °C) is reported as -2.87 ± 0.18 and the “self-splicing fitness (ln)” value (37 °C) is reported as -1.9 ± 0.22.
With GGCUAGCAAUAUUACGUGCC the “self-splicing fitness (ln)” value (30 °C) was -2.22 ± 0.25.
In the case of ACCCAGCAAUAUUACGGCAG, the “self-splicing fitness (ln)” value (30 °C) is reported as -3.84 ± 0.21 and the “self-splicing fitness (ln)” value (37 °C) is reported as -2.74 ± 0.18.
For GUCAAGCAAUAUUACGCAUG, the “self-splicing fitness (ln)” value (30 °C) was -4.62 ± 0.34 and the “self-splicing fitness (ln)” value (37 °C) was -2.33 ± 0.17.
In the case of GACGAGCAAUAUUACGACGC, the “self-splicing fitness (ln)” value (30 °C) is reported as -0.758 ± 0.13 and the “self-splicing fitness (ln)” value (37 °C) is reported as -0.747 ± 0.15.
For GUAAAGCAAUAUUACGAACU, the “self-splicing fitness (ln)” value (30 °C) was -0.845 ± 0.11 and the “self-splicing fitness (ln)” value (37 °C) was -0.0974 ± 0.14.
In the case of ACCCAGCAAUAUUACGCACC, the “self-splicing fitness (ln)” value (30 °C) is reported as -1.17 ± 0.1 and the “self-splicing fitness (ln)” value (37 °C) is reported as -0.52 ± 0.16.
For UUGGAGCAAUAUUACGUCUG, the “self-splicing fitness (ln)” value (30 °C) was -2.66 ± 0.17 and the “self-splicing fitness (ln)” value (37 °C) was -0.914 ± 0.22.
With GUCAAGCAAUAUUACGAGAC the “self-splicing fitness (ln)” value (30 °C) was -3.46 ± 0.19 and the “self-splicing fitness (ln)” value (37 °C) was -3.84 ± 0.26.
With AAGUAGCAAUAUUACGUAGG the “self-splicing fitness (ln)” value (30 °C) was -4.35 ± 0.28 and the “self-splicing fitness (ln)” value (37 °C) was -1.75 ± 0.18.
For CCGAAGCAAUAUUACGAUAG, the “self-splicing fitness (ln)” value (30 °C) was -0.89 ± 0.061 and the “self-splicing fitness (ln)” value (37 °C) was -0.284 ± 0.08.
In the case of AAACAGCAAUAUUACGGGAC, the “self-splicing fitness (ln)” value (30 °C) is reported as -3.74 ± 0.25 and the “self-splicing fitness (ln)” value (37 °C) is reported as -2.35 ± 0.26.
In the case of CGGAAGCAAUAUUACGCUAU, the “self-splicing fitness (ln)” value (30 °C) is reported as -3.66 ± 0.25 and the “self-splicing fitness (ln)” value (37 °C) is reported as -2.13 ± 0.2.
In the case of UCAAAGCAAUAUUACGCGAG, the “self-splicing fitness (ln)” value (30 °C) is reported as -0.91 ± 0.12 and the “self-splicing fitness (ln)” value (37 °C) is reported as -0.54 ± 0.14.
For GUGAAGCAAUAUUACGAUUC, the “self-splicing fitness (ln)” value (30 °C) was -0.545 ± 0.098 and the “self-splicing fitness (ln)” value (37 °C) was 0.0735 ± 0.17.
In the case of CACGAGCAAUAUUACGGGCU, the “self-splicing fitness (ln)” value (30 °C) is reported as -4.17 ± 0.22 and the “self-splicing fitness (ln)” value (37 °C) is reported as -3.5 ± 0.46.
With CCUAAGCAAUAUUACGAAAC the “self-splicing fitness (ln)” value (30 °C) was -3.48 ± 0.33.
With CCGGAGCAAUAUUACGCAAU the “self-splicing fitness (ln)” value (30 °C) was -2.59 ± 0.36.
In the case of UUAGAGCAAUAUUACGCAGC, the “self-splicing fitness (ln)” value (30 °C) is reported as -3.08 ± 0.35.
In the case of ACCUAGCAAUAUUACGGUGA, the “self-splicing fitness (ln)” value (30 °C) is reported as -1.86 ± 0.079 and the “self-splicing fitness (ln)” value (37 °C) is reported as -0.814 ± 0.074.
In the case of ACGAAGCAAUAUUACGUGGC, the “self-splicing fitness (ln)” value (30 °C) is reported as -2.97 ± 0.11 and the “self-splicing fitness (ln)” value (37 °C) is reported as -2.04 ± 0.14.
For ACGUAGCAAUAUUACGAAUA, the “self-splicing fitness (ln)” value (30 °C) was -2.32 ± 0.17 and the “self-splicing fitness (ln)” value (37 °C) was -1.46 ± 0.12.
For CCGAAGCAAUAUUACGCAAU, the “self-splicing fitness (ln)” value (30 °C) was -3.92 ± 0.4 and the “self-splicing fitness (ln)” value (37 °C) was -1.94 ± 0.23.
In the case of GUCUAGCAAUAUUACGUUAU, the “self-splicing fitness (ln)” value (30 °C) is reported as -0.954 ± 0.061 and the “self-splicing fitness (ln)” value (37 °C) is reported as -0.704 ± 0.055.
With UGGUAGCAAUAUUACGUUCC the “self-splicing fitness (ln)” value (30 °C) was -2.33 ± 0.23 and the “self-splicing fitness (ln)” value (37 °C) was -1.19 ± 0.36.
For GAGCAGCAAUAUUACGGGUA, the “self-splicing fitness (ln)” value (30 °C) was -3.4 ± 0.16 and the “self-splicing fitness (ln)” value (37 °C) was -2.36 ± 0.14.
For UUCAAGCAAUAUUACGGCUC, the “self-splicing fitness (ln)” value (30 °C) was -1.68 ± 0.17 and the “self-splicing fitness (ln)” value (37 °C) was -0.923 ± 0.23.
In the case of UUGAAGCAAUAUUACGGUUG, the “self-splicing fitness (ln)” value (30 °C) is reported as -0.894 ± 0.053 and the “self-splicing fitness (ln)” value (37 °C) is reported as -0.569 ± 0.07.
In the case of CGUUAGCAAUAUUACGCACU, the “self-splicing fitness (ln)” value (30 °C) is reported as -2.03 ± 0.12 and the “self-splicing fitness (ln)” value (37 °C) is reported as -0.906 ± 0.11.
With AUAGAGCAAUAUUACGAAGU the “self-splicing fitness (ln)” value (30 °C) was -0.306 ± 0.1 and the “self-splicing fitness (ln)” value (37 °C) was -0.662 ± 0.14.
With CGCCAGCAAUAUUACGCGAU the “self-splicing fitness (ln)” value (30 °C) was -3.87 ± 0.2 and the “self-splicing fitness (ln)” value (37 °C) was -2.22 ± 0.17.
For UCGAAGCAAUAUUACGCAGC, the “self-splicing fitness (ln)” value (30 °C) was -2.71 ± 0.27 and the “self-splicing fitness (ln)” value (37 °C) was -2.18 ± 0.23.
With UUGGAGCAAUAUUACGAUUG the “self-splicing fitness (ln)” value (37 °C) was -2.34 ± 0.41.
For UACCAGCAAUAUUACGUAAG, the “self-splicing fitness (ln)” value (30 °C) was -3.73 ± 0.15 and the “self-splicing fitness (ln)” value (37 °C) was -1.99 ± 0.15.
In the case of UCACAGCAAUAUUACGCAAU, the “self-splicing fitness (ln)” value (37 °C) is reported as -2.13 ± 0.14.
In the case of CGUUAGCAAUAUUACGGAUC, the “self-splicing fitness (ln)” value (30 °C) is reported as -2.18 ± 0.12 and the “self-splicing fitness (ln)” value (37 °C) is reported as -1.13 ± 0.19.
For UAGUAGCAAUAUUACGCUCG, the “self-splicing fitness (ln)” value (30 °C) was 0.127 ± 0.15 and the “self-splicing fitness (ln)” value (37 °C) was 0.103 ± 0.19.
In the case of GGGGAGCAAUAUUACGUUAU, the “self-splicing fitness (ln)” value (30 °C) is reported as -3.58 ± 0.18 and the “self-splicing fitness (ln)” value (37 °C) is reported as -2.14 ± 0.16.
With UGCGAGCAAUAUUACGCGUU the “self-splicing fitness (ln)” value (30 °C) was -3.38 ± 0.27 and the “self-splicing fitness (ln)” value (37 °C) was -1.39 ± 0.18.
For GAGCAGCAAUAUUACGAUGU, the “self-splicing fitness (ln)” value (30 °C) was -3.19 ± 0.15 and the “self-splicing fitness (ln)” value (37 °C) was -1.37 ± 0.11.
With CGCUAGCAAUAUUACGAGGG the “self-splicing fitness (ln)” value (30 °C) was -2.59 ± 0.11 and the “self-splicing fitness (ln)” value (37 °C) was -2.44 ± 0.17.

Reference: the supplement of paper PMC7877785
